Measured values as given in patent publication US20210072252A1 (WASHINGTON UNIVERSITY, published 2021).

Experiments:
[1] = target: T1, peptide with N-terminal histidine; assay: biolayer interferometry (Blitz), peptide-coated sensor, NAAB in 1x PBS, 1:1 fit, kd/ka
T1 construct: also called peptides with N-terminal histidine residues

[2] = target: T1, peptide with N-terminal histidine; assay: biolayer interferometry kinetics; reference: truncated wild-type HisRS fragment

B1: engineered HisNAAB (3-180) (designed binder)
chain: KNIQAIRGMNDYLPGETAIWQRIEGTLKNVLGSYGYSEIRLPIVEQTPLFKRAIGEVTDVVEKEMYTFEDRNGDSLTLRPEGTAGCVRAGIEHGLLYNQEQRLWYIGPMFGNAPQFHQLGCEVFGLQGPDIDAELIMLTARWWRALGISEHVTLELNSIGSLEARANYRDA
Q: What does the source list for B1?
A: Kd [1]: 98.7 µM; fold improvement in binding affinity against the wild-type fragment [2]: ~10 fold
